Experimental findings from ChEMBL document CHEMBL3864159, “Variation of the aryl substituent on the piperazine ring within the 4-(piperazin-1-yl)-2,6-di(pyrrolidin-1-yl)pyrimidine scaffold unveils potent, non-competitive inhibitors of the inflammatory caspases” (Bioorg Med Chem Lett, 2016) are described below.

Compound in data set [1]: c1ccc(CCN2CCN(c3cc(N4CCCC4)nc(N4CCCC4)n3)CC2)cc1
Kind of data set: Non-competitive inhibition of human recombinant N-terminal His-tagged DTT-activated caspase-1 expressed in Escherichia coli assessed as enzyme Vmax at 50 nM using Ac-WEHD-AMC as substrate preincubated for 30 mins followed by substrate addition by Michaelis-Menten plot analysis (reference value: 13162 +/- 1446 RFU/min).

Compound in data set [2]: c1ccc(CCN2CCN(c3cc(N4CCCC4)nc(N4CCCC4)n3)CC2)cc1
Kind of data set: Non-competitive inhibition of human recombinant N-terminal His-tagged DTT-activated caspase-1 expressed in Escherichia coli assessed as enzyme Vmax at 500 nM using Ac-WEHD-AMC as substrate preincubated for 30 mins followed by substrate addition by Michaelis-Menten plot analysis (reference value: 13162 +/- 1446 RFU/min).

Compound in data set [3]: c1ccc(CCN2CCN(c3cc(N4CCCC4)nc(N4CCCC4)n3)CC2)cc1
Kind of data set: Non-competitive inhibition of human recombinant N-terminal His-tagged DTT-activated caspase-1 expressed in Escherichia coli assessed as enzyme Km at 50 nM using Ac-WEHD-AMC as substrate preincubated for 30 mins followed by substrate addition by Michaelis-Menten plot analysis (reference value: 8.18 +/- 2.9 uM).

Compound in data set [4]: c1ccc(CCN2CCN(c3cc(N4CCCC4)nc(N4CCCC4)n3)CC2)cc1
Kind of data set: Non-competitive inhibition of human recombinant N-terminal His-tagged DTT-activated caspase-1 expressed in Escherichia coli assessed as enzyme Km at 500 nM using Ac-WEHD-AMC as substrate preincubated for 30 mins followed by substrate addition by Michaelis-Menten plot analysis (reference value: 8.18 +/- 2.9 uM).

B1: Caspase-1 (Homo sapiens), P29466 (protein)
chain: MADKVLKEKRKLFIRSMGEGTINGLLDELLQTRVLNKEEMEKVKRENATVMDKTRALIDSVIPKGAQACQICITYICEEDSYLAGTLGLSADQTSGNYLNMQDSQGVLSSFPAPQAVQDNPAMPTSSGSEGNVKLCSLEEAQRIWKQKSAEIYPIMDKSSRTRLALIICNEEFDSIPRRTGAEVDITGMTMLLQNLGYSVDVKKNLTASDMTTELEAFAHRPEHKTSDSTFLVFMSHGIREGICGKKHSEQVPDILQLNAIFNMLNTKNCPSLKDKPKVIIIQACRGDSPGVVWFKDSVGVSGNLSLPTTEEFEDDAIKKAHIEKDFIAFCSSTPDNVSWRHPTMGSVFIGRLIEHMQEYACSCDVEEIFRKVRFSFEQPDGRAQMPTTERVTLTRCFYLFPGH
A word on the Km: it is the substrate concentration at which the rate is half of its maximum. B1: the Vmax is 4440 RFU/min in data set [1] and 2840 RFU/min in data set [2]. The Km in data set [3] came out at 5.76 µM; in data set [4] it was 5.75 µM.
